In paper PMC11170914, “A distinct dimer configuration of a diatom Get3 forming a tetrameric complex with its tail-anchored membrane cargo” (BMC Biology, 2024):
Several values for one entry are separate records, joined by “and”; a condition that tells them apart may be missing. Identical values can stand only once.

Key:
[1] = biological target: Pt-Get3a wild type, co-expressed with His-tagged TA protein (Phaeodactylum tricornutum); test: SEC; Pt-Get3a/TA complex co-expressed and co-purified by Ni-NTA, then Superdex-200; ~100 mM NaCl and, as a control, 500 mM NaCl; fractions on SDS-PAGE
[2] = biological target: Pt-Get3a wild type, co-expressed with His-tagged TA protein (Phaeodactylum tricornutum); test: SAXS; HPLC with online size exclusion column, beamline BL23A1 (NSRRC), proteins ~5 mg/mL; P2 symmetry for the dimer, p222 for the Pt-Get3a/TA complex
[3] = biological target: Pt-Get3a L283D_I290D, purified (Phaeodactylum tricornutum); test: SEC; purified Pt-Get3a (after TEV cleavage of the 6His-tag) or its mutants alone; near physiological saline, ~100 mM NaCl; tetramer-dimer equilibrium
[4] = biological target: Pt-Get3a (full-length, amino acids 1–349), purified, His-tag cleaved (Phaeodactylum tricornutum); test: as above
[5] = biological target: Pt-Get3a (full-length, amino acids 1–349), purified, His-tag cleaved (Phaeodactylum tricornutum); test: SEC; purified Pt-Get3a alone; NaCl increased to 500 mM; peak at ~78 mL
[6] = biological target: Pt-Get3a (full-length, amino acids 1–349), purified, His-tag cleaved (Phaeodactylum tricornutum); test: SAXS; HPLC with online size exclusion column, beamline BL23A1 (NSRRC), proteins ~5 mg/mL; P2 symmetry for the dimer, p222 for the Pt-Get3a/TA complex

## Pt-Get3a wild type, co-expressed with His-tagged TA protein (natural protein)
[1]
  stoichiometry N: 4 and 2
[2]
  stoichiometry N: 4

## Pt-Get3a L283D_I290D, purified (natural protein)
[3]
  stoichiometry N: 2

## Pt-Get3a (full-length, amino acids 1–349), purified, His-tag cleaved (natural protein)
[4]
  stoichiometry N: 4
[5]
  stoichiometry N: 2
[6]
  stoichiometry N: 2
